According to the NTF2 design screens of Basanta et al. (2020):

experiment: protease stability score; higher = more stable; yeast display proteolysis, trypsin and chymotrypsin;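 note: log10 excess protease needed over predicted unfolded state with 0 meaning unfolded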

Compared with “DHEEMEKIAEEIIDILRTNDPDQMERLADENVRVRIGDKEVHGRESVSHAAQQLHDRVDHFDLKSWRRNGDKFQFEFVEHFNGQSRNVQVEMRFENGKIRHIVYTSR”, “DHEEQMEKFIKTLKKLMKNNDWETWASLADPNAEARYGDSEYHGREKIVTHMRKLQEHVDHADLKFRSVSLRNGEVTMRISFHVKVNGTDQSHEAKLVLEIDNGRAVIKKMVLD” is higher in protease stability score: 0.226 for the first, 0.795 for the second.

Compared with “DHEESKDIAEKAVKAIETGDPDKFVSNMDKDASARIGDKTYHGRENLRKAMEDFRNQVDHLRVQSYKVSGNTQKLDMRADFNGRTRVITVVMQMENGRVSFIRVHIE”, “DHEETFRKLLHDLDEAMRRGDTKRIQDLADENVQLEVGDKTIHGREEFAKFWMDLQKRVDHLELHVEHIHVSGDRIRAKIVLVFHHNGQTRTRSAQVVLVQENGRNVFTKIQFN” is higher in protease stability score: -0.359 for the first, 1.17 for the second.

Compared with “DHEEVHKLAKKLAEAVVNGNEDRIRKFLKPDVEYKNIDEEYQGKQVAEVIVKTIKTKGVRLKVEEVKVEGDTVEAQYVFQVNGTKVTAHVRAEAKGGRVDKWQVHISDTAKKLRKEG”, “DHEEVKEFNKTLIKILETNDSKKLHELMDPNARIQIGDKDVSGRHNIHKLAEENKRRVDHFRVSRIDYHNGKVRADFTYVVNGQKHRVDMDIDITNGKIKRIIYHQR” is lower in protease stability score: 1.15 for the first, 0.011 for the second.

First: DHEEVRQYEDAVEAEETGDKEKLQRYMDPNVKFHVGDKTLHGREDVARKQKEDRERIRIRYKSMDIKVRGDKVDFKMSFVVNHNGRPQRETRTFTIDLHNGTFKHADWKESG
Second: DHEFAKDAKEVLEENDFEREKQLFDKDASAHIGNTTYHGHEHVQTAIDIRKKRIDHREFHSITIHGDKVDVDLIVQFNGRKIRFDLTIQVHNGRVKEIKFQATNPSQERQLDEIMS
The protease stability score of the first is lower: -0.014 for the first, 1.12 for the second.

Compared with “DHEIRHFAEQVVRVLNTGDEEEIEKLFDPNARITVGDKSYHGMDDYARKVKQTRDEMRFTIDVKDLKVSGDSVSMRAHVVHDHNGTPQKDTEQREFRVQGDRVKHMDVKSDG”, “DHEKNKQHVDQFNEILKNGNPDEANKLADKDVEIEVGDKRYHGHEDFRKYQEEIAEQADHVKVTEVEVDGNKANVDVVLRINGKNLRRTFLLQIHNGRLKRLSFDPDQWDKARG” is higher in protease stability score: -0.395 for the first, 0.91 for the second.

Compared with “DHELEELAKRFLEAVLTGDEDQLRRNMDPNVKVDVGDKTVKGREEAAREIHETVHRSRIHVNHVDFRLNNGRETMRMDVVVDHNGRPQKDTWKMNQDVQGDKVKNINFRTDG”, “DHELENLVEKIMSALTRNNPEDIRSLFDPNARFNIGDKTWNGMDRYITELKKEVDEWDMSVELHSVDIQGNKASAHVEQTAHHDGEPDSFEYTMKLDFHNGKARRQRVNSRK” is higher in protease stability score: -0.353 for the first, -0.248 for the second.

Going from “DHELVEQLHRFWTAVDENDPDKLKENADPNAHFVIGDKTYRGREDFARTIERELDTMEMRFDTMTVTIHNGRLDAKFRYVVRHNGNPQQHKVDAKAEMSNGKIQRLNMQKRP” to “DHENKKRVEEFLKALERNDPERLNHLMDPNVNIIVGDQRFHGREDAARNMAHEQKEQRFEVEDYRISVHGDDVRVEMIVQAEINGRPFRFTLIVYARIHDGRIQTIEFRIDEDEKRRMDQ”, the protease stability score rises from -0.197 to 0.895.

Compared with “DHEQLKNLKELLEAVQTGDEDQVKELMDPNAKFEYGNKSFHGRESMESYLKKLENEARVTVRSVTVRVSNGTISADVHLIFEVNGQPITVDAKFEAELHNGRVKHLYVRMPEETMKEIQG”, “DHEREAKHFVDDWVRALRTGDSKTIEELMDPNVTLRVGDQKLHGRSQNSDQVRRWKERVDTIDVKVRSINKTGDHMRVHVDVVMDINGEKDNKELVINFDKHNGRLIVKHASYG” is higher in protease stability score: -0.312 for the first, -0.113 for the second.

Compared with “DHERILQELLDRAVKMLNTGNEEHARKLAPPHARMVVGDKTIHGMENIAHEWQKVQDRVDHVEARVHSMSVDGDKFVVIVEVTLDINGRKQTQVVTFIAVKNNGQVYVKQINIS”, “DHERLKEFIKIQQENNPDQLRNQMDPNVKARVGDKEFKGREQVVKWLKRIMDQADHIHYDDLKSQGNSVTINAVVEVNGKSFQYNMVVEFHNGRIREIKVEVRNHRVKEILERIEG” is higher in protease stability score: -0.162 for the first, 1.62 for the second.

Going from “DHERLRKLAKDFVKILKHGDPDRMRELVDKDVRVQIGDKEVHGREKVDEMVENIRHRADHIDFTSFHASNGRVTVDVVVNVDGKNTRVTWRIVMSNGRVKMIQVTDG” to “DHERVKDHATDLAKILRQNNERELKKLADKDVHFQIGDKTYHGREKFEEWVHELINTVDHIRITDFDVDGDRVRIDADFDINGKTVRVVIVVKLKNGKIKSQKVQFRDKDLQRKFNS”, the protease stability score falls from 1.82 to -0.152.
